From patent US20220047684A1, “ENZYMES AND METHODS FOR PREVENTING AND TREATING […] IN ANIMALS” (Ecto Development Corporation, priority 2020, published 2022)

B1: E5: esterase EstP from Klebsiella sp., amino acid SEQ. ID No. 5 (protein)
chain: MEICTKGSRKHLTSRASEPSYNVPENQYVLYVVSSTLSIVICQLVKVAESKKSRFSGAIEKLNERLDSLKDYRIINRDLVVKDLERLKKRFDTEVINAELSEQLAKINVNLSRSYSEKGYLRLEKATGSENEWWAKKPSQNDDWQQFEPDGYTIFSSRDHYASLEKSYSDYEIEAKIPLPLRRGICAVVLYPEYISRICVLPESRSIQREQENFTKLRDKGIALSKKDWQAKLTIDELAEQEKERATINKRLGYFATEHEKVGIVHKALEPKLICPFQQIEKEWRQCKVKSKSTFPNSMTFVQNPAYQAVHSGFKKLKEQIGLADEDILLSLEKIEAIGLVNMPLLYERWCLLQIIKVLTQAFRYQPEDNWKRKLIANIQGNEEQISIQFFNPSVSRAITLQYEPFLANGKRPDFVLDVEAITKSGNQISKRLVVDAKYYSAAYLKQRGGIGGVIHELYNGKDYSECQENSVFVLHPVLDAVEKVVSPQEWAKDSYLGELSMFDWEPAHHQRQATNYGAVCANPMKSQRYLDEIQRMLGMFLQYGIEDNTSFRGASDDTHAVNFCVSCGSEKVVDVTKSMSSNNQKRWYRCNECTHFTVYTHCGTCNTRLIKNGEYWTYLSLMPMSSINIKCPNCESPV
modifications: Klebsiella
B2: E1: pyrethroid-hydrolyzing carboxylesterase pytZ from Ochrobactrum sp., amino acid SEQ. ID No. 1 (protein)
chain: MTTQTYEHRLKAGAKGAPLFIVFHGTGGDENQFFGLAEQLLPDATIMSPRGDVSEYGAARFFRRTGEGVYDMEDLARATDKMAGFIAALAAEYKTSEVIGLGYSNGANIMANLLIEKGRVEDKAALLHPLVPFRPKDNPALEGAKILMTAGRMDPICPPDLTEALAQYFERQKADVELVWHPGGHELRQTELAAVQSLLAY
modifications: Ochrobactrum sp
B3: E2: pyrethroid-hydrolyzing carboxylesterase pnbA from B. subtilis, amino acid SEQ. ID No. 2 (protein, listed as Bacillus subtilis)
chain: MTHQIVTTQYGKVKGTTENGVHKWKGIPYAKPPVGQWRFKAPEPPEVWEDVLDATAYGSICPQPSDLLSLSYTELPRQSEDCLYVNVFAPDTPSKNLPVMVWIHGGAFYLGAGSEPLYDGSKLAAQGEVIVVTLNYRLGPFGFLHLSSFNEAYSDNLGLLDQAAALKWVRENISAFGGDPDNVTVFGESAGGMSIAALLAMPAAKGLFQICAIMESGASRTMTICEQAASTSAAFLQVLGINEGQLDKLHTVSAEDLLKAADQLRIAEKENFQLFFQPALDPKTLPEEPEKAIAEGAASGIPLLIGTTRDEGYLFFTPDSDVHSQETLDAALEYLLGKPLAEKVADLYPRSLESQIHMMTDLLEWRPAVAYASAQSHYAPVWMYREDWHPKKPPYNKAFHALELPFVFGNLDGLERMAKAEITDEVKQLSHTIQSAWITFAKTGNPSTEAVNWPAYHEETRETLILDSEITIENDPESEICRQKLEPSKGE
B4: E4: pyrethroid-hydrolyzing carboxylesterase MsE1 from Methylobacterium sp., amino acid SEQ. ID No. 4 (protein)
chain: MTQDTTGFIFIREEPGPDTTRPLMLLHGTGGDENDLLPLGRMVAPEAALLAPRGGVSENGMPRFFRRLAEGVFDEADLRRRTGDLAAFVAASRARYGLGAPLALGFSNGANIAASLLMLRPETLTGAVLIRPMVPFAEPPAADLAGRPVLILSGAMDPIVPVENARRLAQQLSASGARVEHRILPAGHGLSQADVSQALAWLRSLPGPEAA
modifications: Methylobacterium

Test: pNPA method esterase (carboxylesterase) activity assay of spore productions
Type: biochemical
Conditions: 30° C. for 30 minutes, absorbance at 400
Method: Each of the identified enzymes were evaluated for esterase activity assay using pNBA method described below. Determination of carboxylesterase activity of cargo enzyme in Bacillus thuringiensis spore productions or of free enzyme productions. Three active carboxylesterases cloned into pBCm (Bt EO) and pET28a (E. coli BL21) systems: pnbA (B. subtilis), PytH2 (Sphingobium wenxiniae strain), and MsE1 (Methylobacterium sp). p-Nitrophenyl acetate was the substrate in assays for esterase activity. The hydrolysis of p-nitrophenyl acetate releases p-nitrophenol and acetate, and while p-nitrophenyl acetate is colorless, p-nitrophenol is yellow.
6 mg p-Nitrophenyl acetate (pNPA, CAS #830-03-5, MW: 181.1 g/mol) was weighed and dissolved in 1 mL methanol (CAS #67-56-1, MW: 32.04 g/mol). Stored at −20° C. and kept on ice when preparing reactions.
8.0 g sodium chloride (NaCl, CAS #7647-14-5, MW: 58.44 g/mol), 1.44 g sodium phosphate dibasic was dissolved (Na2HPO4, CAS #7558-79-4, MW: 141.96 g/mol), and 0.24 g potassium phosphate monobasic (KH2PO4, CAS #7778-77-0, 136.09 g/mol) in 800 mL DI H20, then adjust pH to 7.4 using hydrochloric acid (HCl, CAS #7647-01-0, MW: 36.46 g/mol). Make 100 mL aliquots and autoclave.
Esterase from rabbit liver (CAS #9016-18-6, Sigma E0887-powder). Store at −20° C. To prepare a stock dissolve 1 mg in 1 mL PBS, kept on ice when using.
Up to 1 mL spore production was pelleted up for 5 min at max speed. Supernatant was discarded without disturbing spore pellet and suspend pellet in ice-cold PBS. Spores kept suspended on ice until use.
The assay was run at 30° C. for 30 minutes. The assay was shaken continuously. Activity was read on (A) 400 BioTek Synergy/HTX microplate reader was used. The results of pNPA hydrolysis are shown in Table 3 depicting carboxylesterase enzyme activity for each of the five strains using pNPA hydrolysis.

Row | Molecule | pNPA hydrolysis
1 | B1 | BDL
2 | B2 | BDL
3 | B3 | 19.7 ± 1.4 nmol pNPA/min/1E+8 spores
4 | B4 | 30.6 ± 0.0 nmol pNPA/min/1E+8 spores

Test: Biological permethrin assay for esterase activity (activity units of esterases)
Type: biochemical
Conditions: esterases used in reaction mix for scud assay
Method: A biological permethrin assay was performed for control, and three esterases pnbA, pytH2 and MsE1. The sensitivity of scuds (Hyalella Azteca) to permethrin was tested with three esterases pnbA, pytH2 and MsE1.
For control and each of the three esterases pnbA, pytH2 and MsE1, ten scuds were exposed to permethrin and one of pnbA, pytH2 or MsE1.
• 100 μL 50% MeOH in PBS • 0.2 μg/μL
• 37 degree C. • 18 hr • Shanking 1000 rpm Transferred 20 μL rxn mix [4 μg] to 100 mL [containing 10 scuds] At time, 24 h and 48 h the ten scuds were scored: A=Alive and Moving actively BA=Barely Alive—Difficulty swimming away; only legs are moving D=Dead—Not moving at all The results of which are shown in FIGS. 8 and 9.

Row | Molecule | Activity units
5 | B3 | 31.4
6 | B4 | 39.5
